From paper PMC4132731, “Crystal structure of RNase H3–substrate complex reveals parallel evolution of RNA/DNA hybrid recognition”

Biological target: T1, Ta-RNase H3 D78N (Thermovibrio ammonificans, UniProt E8T217 1-270, D78N)
T1 sequence: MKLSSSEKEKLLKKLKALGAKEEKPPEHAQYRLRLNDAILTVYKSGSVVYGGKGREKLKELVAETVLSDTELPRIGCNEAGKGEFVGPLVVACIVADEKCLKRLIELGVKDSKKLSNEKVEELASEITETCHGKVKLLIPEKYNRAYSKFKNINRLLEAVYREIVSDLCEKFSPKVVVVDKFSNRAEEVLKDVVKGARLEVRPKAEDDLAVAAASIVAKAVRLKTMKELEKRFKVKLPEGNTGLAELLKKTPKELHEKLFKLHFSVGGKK
Assay: X-ray crystallography (2.1 A); Mg2+ (metal ion A only); sulfate; EMSA: 10% native TAE polyacrylamide gel, binding buffer not given in the material; crystals: 0.2 M ammonium sulfate, 0.1 M BisTris pH 5.5, 25% PEG 3350, 10 mM spermine tetrahydrochloride, protein:substrate 1:1.2
Conditions: protein: recombinant; tags: N-terminal His-SUMO tag removed with SENP; extra N-terminal Ser0 before Met1 (cloning artifact); blunt

B1: 19-bp RNA/DNA hybrid (DNA:RNA)
RNA: GAGUGCGACACCUGAUUCC
DNA: GGAATCAGGTGTCGCACTC
- binding result: binds
